Data published in patent publication US20190134153A1, “IMMUNOMODULATORY EFFECT OF INHALED KINASE INHIBITOR PEPTIDES IN LUNG” (MOERAE MATRIX, INC., priority 2017, published 2019).

What was measured:
Assay in all cases: Kinase Profiling Assay
Format in all cases: biochemical
Conditions in all cases: 100 μM
[1] = target: Tie2(Y897S)(h) (Homo sapiens, UniProt Q02763, Y897S)
[2] = target: MST3(h) (Homo sapiens, UniProt Q9Y6E0)
[3] = target: Plk3(h) (Homo sapiens, UniProt Q9H4B4)
[4] = target: T1, SAPK4(h) (Homo sapiens, UniProt O15264)
T1 sequence (O15264 1-365): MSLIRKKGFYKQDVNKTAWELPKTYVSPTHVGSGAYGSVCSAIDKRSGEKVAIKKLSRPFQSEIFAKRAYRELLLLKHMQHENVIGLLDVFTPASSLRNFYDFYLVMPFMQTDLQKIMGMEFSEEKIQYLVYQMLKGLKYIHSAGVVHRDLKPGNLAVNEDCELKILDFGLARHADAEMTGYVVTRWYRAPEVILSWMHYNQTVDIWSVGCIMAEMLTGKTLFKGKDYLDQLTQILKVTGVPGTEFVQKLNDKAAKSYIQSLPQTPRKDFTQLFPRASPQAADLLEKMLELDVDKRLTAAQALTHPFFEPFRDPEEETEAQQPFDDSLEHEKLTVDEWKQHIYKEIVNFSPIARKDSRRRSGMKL

[5] = target: VRK2(h) (Homo sapiens, UniProt Q86Y07)
[6] = target: T2, GCK(h) (Homo sapiens, UniProt Q12851)
T2 sequence (Q12851 1-820): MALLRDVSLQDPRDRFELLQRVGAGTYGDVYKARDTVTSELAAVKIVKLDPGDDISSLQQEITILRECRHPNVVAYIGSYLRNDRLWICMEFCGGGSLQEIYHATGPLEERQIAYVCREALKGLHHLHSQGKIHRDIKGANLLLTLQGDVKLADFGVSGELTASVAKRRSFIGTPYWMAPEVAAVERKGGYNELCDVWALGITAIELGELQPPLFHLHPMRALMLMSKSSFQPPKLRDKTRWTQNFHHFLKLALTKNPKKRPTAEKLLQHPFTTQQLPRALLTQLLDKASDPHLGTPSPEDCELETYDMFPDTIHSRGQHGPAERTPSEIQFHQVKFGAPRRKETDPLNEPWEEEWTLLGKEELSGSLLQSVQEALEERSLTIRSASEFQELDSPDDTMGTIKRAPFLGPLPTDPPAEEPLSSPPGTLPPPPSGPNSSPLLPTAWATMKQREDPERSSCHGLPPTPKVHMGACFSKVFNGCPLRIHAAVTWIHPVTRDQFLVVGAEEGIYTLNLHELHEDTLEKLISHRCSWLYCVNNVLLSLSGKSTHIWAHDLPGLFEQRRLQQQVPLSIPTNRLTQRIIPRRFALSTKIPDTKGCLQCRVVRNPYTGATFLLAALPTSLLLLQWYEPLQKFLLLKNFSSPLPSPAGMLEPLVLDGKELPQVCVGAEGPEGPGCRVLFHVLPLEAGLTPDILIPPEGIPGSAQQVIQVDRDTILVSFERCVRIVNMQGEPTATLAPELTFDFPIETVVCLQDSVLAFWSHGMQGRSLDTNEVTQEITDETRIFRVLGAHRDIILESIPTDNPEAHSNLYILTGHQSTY

[7] = target: FGFR4(h) (Homo sapiens, UniProt P22455)
[8] = target: Syk(h) (Homo sapiens, UniProt P43405)
[9] = target: T3, PKCμ(h) (Homo sapiens, UniProt Q15139)
T3 sequence (Q15139 1-912): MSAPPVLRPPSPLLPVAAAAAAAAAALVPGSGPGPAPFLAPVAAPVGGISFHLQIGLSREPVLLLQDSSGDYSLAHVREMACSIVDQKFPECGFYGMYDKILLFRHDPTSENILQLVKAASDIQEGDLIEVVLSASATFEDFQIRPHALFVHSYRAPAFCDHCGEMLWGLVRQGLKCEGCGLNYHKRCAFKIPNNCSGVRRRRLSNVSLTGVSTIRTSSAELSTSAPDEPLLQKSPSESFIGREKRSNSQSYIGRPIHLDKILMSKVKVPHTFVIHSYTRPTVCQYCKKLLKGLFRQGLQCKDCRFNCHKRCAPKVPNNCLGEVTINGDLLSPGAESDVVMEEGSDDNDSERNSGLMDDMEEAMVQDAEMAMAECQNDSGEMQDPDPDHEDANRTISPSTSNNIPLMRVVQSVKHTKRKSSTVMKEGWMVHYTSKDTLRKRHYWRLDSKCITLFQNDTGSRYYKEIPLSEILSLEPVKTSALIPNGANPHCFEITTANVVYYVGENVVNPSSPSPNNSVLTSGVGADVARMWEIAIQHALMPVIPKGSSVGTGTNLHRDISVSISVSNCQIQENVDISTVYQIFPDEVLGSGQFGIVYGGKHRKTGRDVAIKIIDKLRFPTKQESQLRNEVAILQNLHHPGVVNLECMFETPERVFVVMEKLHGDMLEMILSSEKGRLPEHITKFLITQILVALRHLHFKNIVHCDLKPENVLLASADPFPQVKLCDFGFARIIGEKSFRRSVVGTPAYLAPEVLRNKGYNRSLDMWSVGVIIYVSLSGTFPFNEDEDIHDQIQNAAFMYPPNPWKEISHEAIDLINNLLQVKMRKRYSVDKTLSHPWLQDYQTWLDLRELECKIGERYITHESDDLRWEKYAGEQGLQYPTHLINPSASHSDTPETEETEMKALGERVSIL

[10] = target: JNK2α2(h) (Homo sapiens, UniProt P45984)
[11] = target: BTK(h) (Homo sapiens, UniProt Q06187)
Chain of BTK(h) (Q06187 whole entry): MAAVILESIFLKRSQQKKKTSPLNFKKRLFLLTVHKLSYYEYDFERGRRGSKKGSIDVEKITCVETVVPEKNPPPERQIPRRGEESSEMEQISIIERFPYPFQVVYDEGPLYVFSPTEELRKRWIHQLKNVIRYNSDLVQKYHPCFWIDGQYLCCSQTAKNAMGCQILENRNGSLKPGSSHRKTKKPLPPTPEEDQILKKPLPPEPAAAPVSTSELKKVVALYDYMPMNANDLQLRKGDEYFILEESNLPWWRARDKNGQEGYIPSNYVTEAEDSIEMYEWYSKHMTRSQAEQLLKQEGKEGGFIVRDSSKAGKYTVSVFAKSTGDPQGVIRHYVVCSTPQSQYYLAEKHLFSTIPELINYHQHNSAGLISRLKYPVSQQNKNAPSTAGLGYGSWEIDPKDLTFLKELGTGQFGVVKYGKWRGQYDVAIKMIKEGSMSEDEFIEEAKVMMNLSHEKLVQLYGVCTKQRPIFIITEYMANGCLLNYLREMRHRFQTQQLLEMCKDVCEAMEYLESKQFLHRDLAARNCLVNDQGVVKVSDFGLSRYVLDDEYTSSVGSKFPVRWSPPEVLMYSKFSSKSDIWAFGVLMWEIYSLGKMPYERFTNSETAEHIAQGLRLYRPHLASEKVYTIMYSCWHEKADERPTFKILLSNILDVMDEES

Chain of Tie2(Y897S)(h) (Q02763 23-1124 Y897S): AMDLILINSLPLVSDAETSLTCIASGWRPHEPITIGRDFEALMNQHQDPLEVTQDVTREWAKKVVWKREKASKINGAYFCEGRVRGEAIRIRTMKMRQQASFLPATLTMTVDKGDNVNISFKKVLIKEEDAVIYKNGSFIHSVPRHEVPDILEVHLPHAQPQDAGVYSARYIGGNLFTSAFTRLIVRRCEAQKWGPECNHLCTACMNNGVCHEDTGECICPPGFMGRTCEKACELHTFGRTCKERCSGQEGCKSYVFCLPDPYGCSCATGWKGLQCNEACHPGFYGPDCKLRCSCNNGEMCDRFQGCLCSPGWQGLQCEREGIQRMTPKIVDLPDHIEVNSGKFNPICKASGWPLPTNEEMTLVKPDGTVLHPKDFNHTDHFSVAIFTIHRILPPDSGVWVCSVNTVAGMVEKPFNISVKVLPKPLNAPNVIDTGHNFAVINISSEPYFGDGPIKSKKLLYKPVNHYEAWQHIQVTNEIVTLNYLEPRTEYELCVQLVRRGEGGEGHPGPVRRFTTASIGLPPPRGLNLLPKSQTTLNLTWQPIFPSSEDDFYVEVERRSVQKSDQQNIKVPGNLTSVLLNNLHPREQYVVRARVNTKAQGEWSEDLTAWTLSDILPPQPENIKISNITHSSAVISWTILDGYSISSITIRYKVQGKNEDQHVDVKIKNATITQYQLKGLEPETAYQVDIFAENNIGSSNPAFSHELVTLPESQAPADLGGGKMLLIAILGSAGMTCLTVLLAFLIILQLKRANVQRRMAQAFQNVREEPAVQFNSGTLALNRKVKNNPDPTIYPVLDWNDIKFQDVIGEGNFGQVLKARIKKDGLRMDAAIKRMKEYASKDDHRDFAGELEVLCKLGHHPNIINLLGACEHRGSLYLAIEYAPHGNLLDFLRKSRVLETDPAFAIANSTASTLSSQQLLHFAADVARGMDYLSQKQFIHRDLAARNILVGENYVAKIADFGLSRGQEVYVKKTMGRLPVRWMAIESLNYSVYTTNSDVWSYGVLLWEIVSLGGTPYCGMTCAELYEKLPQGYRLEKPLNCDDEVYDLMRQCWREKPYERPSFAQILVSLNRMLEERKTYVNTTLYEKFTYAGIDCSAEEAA
Chain of MST3(h) (Q9Y6E0 whole entry): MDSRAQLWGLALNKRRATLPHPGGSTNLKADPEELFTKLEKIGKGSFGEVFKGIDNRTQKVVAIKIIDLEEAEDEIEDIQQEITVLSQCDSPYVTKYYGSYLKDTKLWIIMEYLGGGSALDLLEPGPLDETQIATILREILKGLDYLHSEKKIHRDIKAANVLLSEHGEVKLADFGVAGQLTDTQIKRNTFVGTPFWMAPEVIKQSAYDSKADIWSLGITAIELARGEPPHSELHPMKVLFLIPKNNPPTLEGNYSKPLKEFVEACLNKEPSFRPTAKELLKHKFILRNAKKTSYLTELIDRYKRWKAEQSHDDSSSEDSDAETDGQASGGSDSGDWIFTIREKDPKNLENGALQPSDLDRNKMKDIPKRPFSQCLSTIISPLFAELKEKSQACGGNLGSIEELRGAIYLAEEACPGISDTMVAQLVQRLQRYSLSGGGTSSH
Chain of VRK2(h) (Q86Y07 whole entry): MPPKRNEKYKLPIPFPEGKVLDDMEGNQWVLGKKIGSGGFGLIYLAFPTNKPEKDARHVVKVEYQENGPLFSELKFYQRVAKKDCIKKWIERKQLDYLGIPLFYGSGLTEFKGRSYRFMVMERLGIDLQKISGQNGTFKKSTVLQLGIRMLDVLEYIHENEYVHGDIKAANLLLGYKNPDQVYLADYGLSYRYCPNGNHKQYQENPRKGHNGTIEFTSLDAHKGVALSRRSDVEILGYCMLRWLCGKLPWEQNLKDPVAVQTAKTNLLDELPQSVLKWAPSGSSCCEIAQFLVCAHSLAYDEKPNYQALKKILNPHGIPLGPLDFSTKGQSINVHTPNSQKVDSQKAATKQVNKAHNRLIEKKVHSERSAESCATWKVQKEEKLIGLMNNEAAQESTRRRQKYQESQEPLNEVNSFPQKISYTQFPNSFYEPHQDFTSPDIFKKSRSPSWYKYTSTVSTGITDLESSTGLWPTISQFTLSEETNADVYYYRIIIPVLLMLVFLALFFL
Chain of Plk3(h) (Q9H4B4 whole entry): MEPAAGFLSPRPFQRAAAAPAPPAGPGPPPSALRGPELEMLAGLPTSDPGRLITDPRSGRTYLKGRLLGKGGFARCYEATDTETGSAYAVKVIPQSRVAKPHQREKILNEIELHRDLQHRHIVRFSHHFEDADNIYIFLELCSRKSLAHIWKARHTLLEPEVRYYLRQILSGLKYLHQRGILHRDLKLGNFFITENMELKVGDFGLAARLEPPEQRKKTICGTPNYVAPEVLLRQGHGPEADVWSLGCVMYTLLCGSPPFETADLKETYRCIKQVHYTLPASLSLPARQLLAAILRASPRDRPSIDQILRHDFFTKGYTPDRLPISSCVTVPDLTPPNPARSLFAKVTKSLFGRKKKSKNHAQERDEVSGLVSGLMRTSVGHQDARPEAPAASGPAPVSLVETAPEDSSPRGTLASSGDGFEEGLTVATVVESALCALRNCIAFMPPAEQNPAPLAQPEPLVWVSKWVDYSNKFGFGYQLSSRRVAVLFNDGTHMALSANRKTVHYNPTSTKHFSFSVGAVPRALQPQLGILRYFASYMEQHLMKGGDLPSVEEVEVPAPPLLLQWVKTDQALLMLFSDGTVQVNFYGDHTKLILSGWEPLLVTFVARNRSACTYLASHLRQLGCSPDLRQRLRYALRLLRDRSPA

Sequence	% activity [1] [%]	% activity [2] [%]	% activity [3] [%]	% activity [4] [%]	% activity [5] [%]	% activity [6] [%]	% activity [7] [%]	% activity [8] [%]	% activity [9] [%]	% activity [10] [%]	% activity [11] [%]
FAKLAARLYRKALARQLGVAA [MMI-0300]	83	45	127	96	161	70	28	24	22	98	–
HRRIKAWLKKIKALARQLGVAA [MMI-0500]	80	4	122	48	169	30	3	5	10	81	18
KAFAKLAARLYRKALARQLGVAA [MMI-0400]	87	36	129	91	185	66	19	9	14	96	94
YARAAARQARAKALNRQLGVA [MMI-0200]	85	95	–	–	–	99	75	36	73	–	100
